# Assay results reported in patent publication US20210101953A1 (ZHEJIANG K2 ONCOLOGY, published 2021).
# T1: EpCAM protein on Skov3 cells (UniProt P16422 24-314, limits assumed)
# T1 construct: whole, on cells; also called cellular level EpCAM; epithelial cell adhesion molecule
# T1 sequence (looked up): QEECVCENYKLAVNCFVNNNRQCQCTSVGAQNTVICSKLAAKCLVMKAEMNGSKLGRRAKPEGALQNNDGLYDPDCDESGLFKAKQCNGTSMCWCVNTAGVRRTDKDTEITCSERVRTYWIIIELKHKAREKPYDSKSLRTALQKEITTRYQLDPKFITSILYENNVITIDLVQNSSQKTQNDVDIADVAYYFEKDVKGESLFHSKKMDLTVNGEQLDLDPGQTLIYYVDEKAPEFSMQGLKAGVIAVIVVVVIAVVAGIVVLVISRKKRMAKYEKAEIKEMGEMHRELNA
# T2: recombinant human EpCAM protein (Sino biologics, Product Number 10694-H08H) (human, UniProt P16422 24-265)
# T2 construct: Bought protein coated on the ELISA plate at 1 ug/ml
# T2 sequence (looked up): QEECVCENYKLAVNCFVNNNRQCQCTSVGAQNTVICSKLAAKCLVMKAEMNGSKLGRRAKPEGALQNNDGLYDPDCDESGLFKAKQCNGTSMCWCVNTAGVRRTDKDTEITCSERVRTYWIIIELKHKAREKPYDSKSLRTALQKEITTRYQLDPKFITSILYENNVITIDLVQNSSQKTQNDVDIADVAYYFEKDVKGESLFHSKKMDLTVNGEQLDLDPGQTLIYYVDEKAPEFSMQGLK
# Experiments:
# [1] = target: T1, EpCAM protein on Skov3 cells; experiment: staining of fixed Skov3 cells, detected with anti-human IL-2 antibody and DAB
# Protocol: Skov3 cells have adherent growth in a 24-pore plate for 24 hours and are fixed for 10 minutes using 4% PFA (paraformaldehyde); 5% BSA is added to block non-specific antigens; a primary antibody of anti-human IL-2 is added for incubation for 1 hour; after washing is performed 3 times with PBST, a secondary antibody is added; after incubation is performed for 1 hour, DAB (diaminobenzidine) is added for color development; and after washing is performed with PBS, photographing is performed under a bright-field microscope.
# [2] = target: T2, recombinant human EpCAM protein (Sino …); experiment: ELISA on coated recombinant human EpCAM, bound protein detected by its IL-2 part with an IL-2 ELISA kit
# Protocol: 2. […] [0069] ii. IL-2 level detection: an IL-2 ELISA commercial kit (Manufacturer: Biolegend; Product Number 431801) is adopted; the brief steps include adding a primary antibody of anti-human IL-2, incubating for 1 hour and then adding a horseradish peroxidase labeled secondary antibody to obtain a […] signal by TMB color development. [0070] iii. Data processing: a standard curve is obtained by using an IL-2 standard product included in the kit, and the IL-2 signal level corresponding to the amount of protein bound to EpCAM is calculated, which represents the level of the protein bound to EpCAM.
Binder,binding result [1],binding result [2]
"fusion protein EPIL-2-2303407 of the anti-EpCAM single-chain antibody and IL-2 (other, Single chain; Expressed in HEK293 cells and purified on Ni-Sepharose) APTSSSTKKTQLQLEHLLLDLQMILNGINNYKNPKLTRMLTFKFYMPKKATELKHLQCLEEELKPLEEALNLAPSKNFHLRPRDLISNINVIVLELKGSETTFMCEYADETATIVEFLNRWITFSQSTISTLTGGGGSGGGGSGGGGSGGGGSEVQLLEQSGAELARPGASVKLSCKASGYTFTNYGLSWVKQRPGQVLEWIGEVYPRIGNAYYNEKFKGKATLTADKSSSTASMELRSLTSEDSAVYFCARRGSYDTNYDWYFDVWGQGTTVTVSSGGGGSGGGGSGGGGSELVMTQTPLSLPVSLGDQASISCRSSQSLVHSNGNTYLHWYLQKPGQSPKLLIYKVSNRFSGVPDRFSGSGSGTDFTLKISRVEAEDLGVYFCSQSTHVPYTFGGGTKLEIKHHHHHH",binds,binds
"fusion protein EPIL-2-2303301 of the anti-EpCAM single-chain antibody and IL-2 (other, Single chain; Expressed in HEK293 cells and purified on Ni-Sepharose) APTSSSTKKTQLQLEHLLLDLQMILNGINNYKNPKLTRMLTFKFYMPKKATELKHLQCLEEELKPLEEALNLAPSKNFHLRPRDLISNINVIVLELKGSETTFMCEYADETATIVEFLNRWITFSQSTISTLTGGGGSGGGGSGGGGSGGGGSEVQLLEQSGAELVKPGASVKISCKASGYAFTNYWLGWVKQRPGHGLEWIGDLFPGSGNTHYNERFRGKATLTADKSSSTAFMQLSSLTSEDSAVYFCARLRNWDEAMDYWGQGTTVTVSSGGGGSGGGGSGGGGSELVMTQSPSYLAASPGETITINCRASKSISKYLAWYQEKPGKTNKLLIYSGSTLQSGIPSRFSGSGSGTDFTLTISSLEPEDFAMYYCQQHNEYPYTFGGGTKLEIKHHHHHH",binds,binds
